Measured values as given in PMC13134850.

B1: Ncr-1 fusion protein (Ncr-1 Ig) (mouse) (Fc fusion)
chain: QRINTEKETLPKPIIWAKPSIMVTNGNSVNIWCQGAQSASEYQLYFEGSFFALERPKPSRSMNKVRFFISQMTSHTAGIYTCFYQSGELWSKSSNPLKLVVTGLYDTPNLWVYPRPEVTLGENVTFFCQLKTATSKFFLLKERGSNHIQNKYGNIQAEFPMGPVTRAHRGTYRCFGSYNDYAWSFPSEPVTLLITGGVENSSLAPTDPTSSLDYWEFDLSTNESGLQKDSAFWDHTTQN

Target: RadD adhesin of Fusobacterium nucleatum subsp. nucleatum ATCC 23726 (Fusobacterium nucleatum subsp. nucleatum ATCC 23726 (endogenous on the bacteria))
Assay: flow cytometry on cells

Molecule | fold increase in binding to ATCC 23726 ∆fad-I [fold]
NKp46 fusion protein (NKp46 Ig) (human) (from UniProt O76036 22-258) (Fc fusion) | 100
B1 | 100
